The values below come from the supplement of paper PMC9170038.

The subject of this series is MS2 coat protein. The series can be described thus: apparent KD of MS2 coat protein; designed switch direction (-1 OFF switch, 1 ON switch): 1; higher = weaker reporter binding. Summed up: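 For each design, the apparent KD is the median over clusters of curves fitted to normalised cluster fluorescence. Clusters held RNA switches with common flanks, transcribed on Illumina chips by stalled E. coli RNA polymerase. These were titrated with SNAP-549-labelled MS2 coat protein, doubling from 0.7 or 1.5 nM to 3 µM, without input, with 200 uM small-molecule ligand, or with an oligonucleotide input.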

[1] abbreviates: Eterna round: R95, input ligand: microRNA oligo, concentration not stated.
Where [2] appears, read: Eterna round: R95, input ligand: FMN 200 uM.
Setting [3] is: Eterna round: R95, input ligand: none.
The mark [4] stands for this setting: input ligand: microRNA oligo, concentration not stated.

Take “GGAGAACAUGAGGAUCACCCAUGUGAGCGGUAGCUAGGAUAUGCGGGAAGGAAGAGAGAAGCAGAAGGAGUCGGUA [JR_SS1_Sub033] (puzzle: Same State 1)”: the “apparent KD of MS2 coat protein” value under setting [1] was determined as 34.2 nM.

With “AGUCCAGCCUGAGCUGGACAAAAGCAUGUACAUGAGGAUCACCCAUGUCAUGUACAAGCUUUUUGCACGUCUUAAAA [Mat - hsa-mir-208a - Mod of JL - D13] (puzzle: Sensor for hsa-mir-208a)”, the “apparent KD of MS2 coat protein” value came out at 1120 nM under setting [2], 16.4 nM under setting [1] and 542 nM under setting [3].

As to “GUGGUGGGUUGAGGAUAUUGGUUGUUGUUGUUCUACAUGAGGAUCACCCAUGUGGGUUGUGGUUUUGAGAAGGUUGGUUGCUGG [salish99_SSNG2_r04_049] (Eterna round: R96, puzzle: Same State NG 2)”, the “apparent KD of MS2 coat protein” value was found to be 45.2 nM (input ligand: FMN 200 uM), 31.3 nM under setting [4] and 42.8 nM (input ligand: none).

Consider “CUCCGGAAGCGAGGAUAUGCAGAGGAUCACCCUGCAGAAGGCGCCCUUGCGAGGAUAUGCAGAGGAUCACCCUGCAGAAGGCGC [pwkr ssNG DX.30] (Eterna round: R96, puzzle: Same State NG 1)”, for which the “apparent KD of MS2 coat protein” value (input ligand: FMN 200 uM) was 16.2 nM, the “apparent KD of MS2 coat protein” value under setting [4] was 15.4 nM and the “apparent KD of MS2 coat protein” value (input ligand: none) came out at 28 nM.

For “GUUACAUGAGGAUCACCCAUGUAUGUGUGGGAGUAAGUGUCUUAGGAUAUCUAUGAUUUAAAUUAAGAGAAGGAAGAUUGUUGU [JMF's solution 11] (Eterna round: R96, puzzle: Same State NG 3)”, the “apparent KD of MS2 coat protein” value under setting [4] worked out at 84.2 nM.

With “GCAGAACAUGAGGAUCACCCAUGUCUCAAAUAUUGAGGAUAUGGACACGGUAUAUCCGAACCAGAAGGCAAACUGC [SS1 Teenbexe 19] (puzzle: Same State 1)”, the “apparent KD of MS2 coat protein” value by setting is: under setting [2], 55.8 nM; under setting [1], 74.5 nM; under setting [3], 64 nM.

Turning to “GUUACAUGAGGAUCACCCAUGUAUGUGUGGGAGUAAGUGUCUUAGGAUAUCUAGUAUUAAAUUUAAGAGAAGGAAGAUUGUUGU [JMF's solution 57] (Eterna round: R96, puzzle: Same State NG 3)”, the “apparent KD of MS2 coat protein” value (input ligand: FMN 200 uM) stood at 140 nM, the “apparent KD of MS2 coat protein” value under setting [4] amounted to 78.9 nM and the “apparent KD of MS2 coat protein” value (input ligand: none) came out at 110 nM.

As for “UUUAGUUGCGGGCAGGAUAUGUAUUAAAAUACAUGAGGAUCACCCAUGUGGGACCGAAAAGGUCUACAGAAGGGCCAAUCGCGAC [Laonerce - 21] (puzzle: Same State 2)”, the “apparent KD of MS2 coat protein” value under setting [2] is 17.1 nM, the “apparent KD of MS2 coat protein” value under setting [1] came out at 53.3 nM and the “apparent KD of MS2 coat protein” value under setting [3] came to 77.1 nM.

Take “UCUUGGUUUUUGCUCGUUUUUUGUGUUGAACAUGAGGAUCACCCAUGUAUUAUACGGUCCGGUUUAGUAGUGGUCCA [JMF 78] (puzzle: Sensor for hsa-mir-208a)”: the “apparent KD of MS2 coat protein” value is 86.1 nM under setting [2], 83 nM under setting [1] and 113 nM under setting [3].

Take “UUGUUUUGAAAUUAACAUGAGGAUCACCCAUGUCUUGACACAGAGGAUAUACAUGAAUGUAGGUAGUAGAAGGCUGUUUAGUGU [JR_SSNG3_Sub098] (Eterna round: R96, puzzle: Same State NG 3)”: under setting [4], the “apparent KD of MS2 coat protein” value is 57.2 nM.

Consider “GAGUAGUUGGGAGGAUAUCGAUUGUUAUAGAAUCGAGAAGGUUUUAACAUGAGGAUCACCCAUGUAGGACUAUUCCUGUGUAUC [Parity 73 - Jieux - Same State NG 1] (Eterna round: R96, puzzle: Same State NG 1)”, for which the “apparent KD of MS2 coat protein” value was 127 nM (input ligand: FMN 200 uM), 68.5 nM under setting [4] and 107 nM (input ligand: none).

Take “AGUUGAAAUACAGGAUAUAUAUUAUUUUUAUUUAUAGAAGGGUAAUCACAUGAGGAUCACCCAUGUAUAUACGAGGAAGAAGAG [JMF's solution 1] (Eterna round: R96, puzzle: Same State NG 1)”: the “apparent KD of MS2 coat protein” value under setting [4] was 182 nM.
